Assay results: patent publication US20260232732A1 (FUNDACI INSTITUT DE RECERCA CONTRA LA LEUC MIA JOSEP …, published 2026)
Where no end group is shown, it is not given here. The star is where a group is joined. Biotin = O=C1N[C@H]2[C@H](CS[C@H]2CCCCC(=O)*)N1

B1: CCR9_HUM2 scFv (humanized anti-CCR9 scFv, SEQ ID NO: 17 with C-terminal 6xHis tag) (scFv)
scFv: QVQLVQSGAEVKKPGASVKVSCTASGYSFTDYIIYWVKQAHGQSLEWMGYIDPNNYNTRYSQKFQGKVTITVDKSSTSAYMELNSLTSDDTAVYYCARDVYWGQGTTVTVSSGGGGSGGGGSGGGGSGGGGSDVVMTQTPLSLSVTPGQPASISCRSSQSLVHSNGKTYLQWYLQKPGQSPKLLIYKVSNRFSGVPDRFSGSGSGTDFTLKISRVEAEDVGVYFCAQSTHVWTFGGGTKVEIKRAHHHHHH
B2: Comparative antibody 3 (Comp-3) scFv, SR_92R (Somovilla-Crespo et al. 2018), His-tagged (scFv)
scFv: EVKLEESGGGLVQPGGSMKLSCVASGFTFNKFWMNWVRQSPEKGLEWVAEIRLKSNNYATHYAESVKGRFTISRDDSKSSVYLQMNNLRAEDTGIYYCASDGWFAYWGQGTLVTVSAGGGGSGGGGSGGGGSGGGGSDVVMTQTPLSLPVSLGDQASISCRSSQSLVHSNGNTYLNWCLQRPGQSPKSLIYKVSNRFSGVPDRFSGSGSGTDFTLKISRVEAEDLGVYFCSQSTHFPRTFGGGTKLEIKRHHHHHH
B3: Comparative antibody 2 (Comp-2) scFv, 243LO326 (VH SEQ ID NO: 51 and VL SEQ ID NO: 52 of WO 2022/195028 A2), His-tagged (scFv)
scFv: QVQLVQSGAEVKKPGASVKVSCKASGYTFTSYWMHWVRQAPGQGLEWIGVIYPGNSDTRYNQKFKGRVTITRDTSASTAYMELSSLRSEDTAVYYCTRDYYSNYVYYYAMDYWGQGTTVTVSSGGGGSGGGGSGGGGSGGGGSDIVMTQTPLSLPVTPGEPASISCRSSQSLVHPNRNTYLHWYLQKPGQSPQLLIYKVSNRFSGVPDRFSGSGSGTDFTLKISRVEAEDVGVYYCSQSTHVPWTFGQGTKLEIKHHHHHH
B4: Comparative antibody 1 (Comp-1) scFv, SEQ ID NO: 10 from WO2023/037125 A1, His-tagged (scFv)
scFv: QVQLKESGPGLVQPSQTLSLTCTVSGFSVASYDMHWVRLPPGKGLEWMGIIWANGNTHYNSGLKSRLSISRDTSKSQVFLKMNSLQTEDTAIYFCTRGGFAYWGQGTLVTVSSGGGGSGGGGSGGGGSGGGGSDVVMTQTPVSLSVSLGGQVSISCRSSQSLVHNNGNTYLSWYLQKPGQSPQLLIYKVSNRFSGVSDRFSGSGSGTDFTLKISRVEPDDLGVYYCGQGTQYPTFGGGTKLELKHHHHHH

Target: T1, naked peptide YCEKNNVRQF (human)
T1 peptide: YCEKNNVRQF
Assay: ELISA naked peptide; scFv 1 ug/mL; repI
Protocol: (§1) The peptides were synthesized naked or with a N-terminal Biotin modification with a purity of >98%. All four scFvs were verified by ELISA that can be detected with anti-His antibodies. ELISA was performed for scFv-peptide binding validation. Briefly, naked peptides were coated (50 μg/mL) in 0.58M carbonate-bicarbonate buffer pH9.5, 100 μL/well, 4° C. O/N. Then after blocking (3% BSA-PBS, 300 μL/well 37° C. 1.5 h) and washing (PBS+Tween-20 0.05% v/v (0.05% PBST), wells were incubated with each purified scFv antibody at concentration of 1 μg/mL in PBS at 37° C. 1 h. After washing (0.05% PBST), wells were incubated with secondary antibodies (goat anti-His IgG-HRP) in PBS, 37° C., 30 min. After washing, and incubation with TMB substrate, reactions were stopped with 2M HCl and reading was quantified at OD450.
(§2) Then a library of overlapping peptides were designed and constructed separately to produce 16 different peptides, covering full antigen sequence of total 48 aa. Peptide size was 10aa, with 7aa overlapping and ELISA screening of scFv against each peptide was performed in duplicate. Screening was performed using naked peptides in a standard plate or biotinylated peptides using avidin-plates.

Binder	OD450
B1	0.04 OD
B2	0.04 OD
B3	0.05 OD
B4	0.02 OD

Target: T2, biotin-peptide SESTSSMEDY (human)
T2 peptide: Biotin-SESTSSMEDY
Assay: ELISA biotin-peptide; scFv 10 ug/mL; repI
Protocol: as §1
as §2, with “avidin-plates. The list of overlapping peptides was as follows:” for “avidin-plates.”
(§3) ELISA with biotin-conjugated peptides (5 μg/mL) was performed very similar to described above with minor modifications.

Binder	OD450
B1	0.08 OD
B2	0.15 OD
B3	0.06 OD
B4	0.13 OD

Target: T3, biotin-peptide MEDYVNFNFT (human)
T3 peptide: Biotin-MEDYVNFNFT
Assay: ELISA biotin-peptide; scFv 10 ug/mL; repI
Protocol: as §1
as §2, with “avidin-plates. The list of overlapping peptides was as follows:” for “avidin-plates.”
as §3

Binder	OD450
B1	2.56 OD
B2	0.1 OD
B3	0.1 OD
B4	0.16 OD

Target: T4, biotin-peptide SMEDYVNFNF (human)
T4 peptide: Biotin-SMEDYVNFNF
Assay: ELISA biotin-peptide; scFv 10 ug/mL; repI
Protocol: as §1
as §2, with “avidin-plates. The list of overlapping peptides was as follows:” for “avidin-plates.”
as §3

Binder	OD450
B1	2.48 OD
B2	0.1 OD
B3	0.09 OD
B4	0.15 OD

Target: T5, biotin-peptide IPNMADDYGS (human)
T5 peptide: Biotin-IPNMADDYGS
Assay: ELISA biotin-peptide; scFv 10 ug/mL; repI
Protocol: as §1
as §2, with “avidin-plates. The list of overlapping peptides was as follows:” for “avidin-plates.”
as §3

Binder	OD450
B1	0.14 OD
B2	1.59 OD
B3	0.1 OD
B4	0.16 OD

Target: T6, biotin-peptide YCEKNNVRQF (human)
T6 peptide: Biotin-YCEKNNVRQF
Assay: ELISA biotin-peptide; scFv 10 ug/mL; repI
Protocol: as §1
as §2, with “avidin-plates. The list of overlapping peptides was as follows:” for “avidin-plates.”
as §3

Binder	OD450
B1	0.07 OD
B2	0.11 OD
B3	0.09 OD
B4	0.06 OD

Target: T7, biotin-peptide TDFTSPIPNM (human)
T7 peptide: Biotin-TDFTSPIPNM
Assay: ELISA biotin-peptide; scFv 10 ug/mL; repI
Protocol: as §1
as §2, with “avidin-plates. The list of overlapping peptides was as follows:” for “avidin-plates.”
as §3

Binder	OD450
B1	0.12 OD
B2	0.11 OD
B3	0.1 OD
B4	0.06 OD

Target: T8, biotin-peptide TSSMEDYVNF (human)
T8 peptide: Biotin-TSSMEDYVNF
Assay: ELISA biotin-peptide; scFv 10 ug/mL; repI
Protocol: as §1
as §2, with “avidin-plates. The list of overlapping peptides was as follows:” for “avidin-plates.”
as §3

Binder	OD450
B1	2.05 OD
B2	0.1 OD
B3	0.08 OD
B4	0.1 OD

Target: T9, biotin-peptide DYGSESTSSM (human)
T9 peptide: Biotin-DYGSESTSSM
Assay: ELISA biotin-peptide; scFv 10 ug/mL; repI
Protocol: as §1
as §2, with “avidin-plates. The list of overlapping peptides was as follows:” for “avidin-plates.”
as §3

Binder	OD450
B1	0.09 OD
B2	0.12 OD
B3	0.09 OD
B4	0.1 OD

Target: T10, biotin-peptide TSPIPNMADD (human)
T10 peptide: Biotin-TSPIPNMADD
Assay: ELISA biotin-peptide; scFv 10 ug/mL; repI
Protocol: as §1
as §2, with “avidin-plates. The list of overlapping peptides was as follows:” for “avidin-plates.”
as §3

Binder	OD450
B1	0.09 OD
B2	1.6 OD
B3	0.04 OD
B4	0.13 OD

Target: T11, biotin-peptide KNNVRQFAS (human)
T11 peptide: Biotin-KNNVRQFAS
Assay: ELISA biotin-peptide; scFv 10 ug/mL; repI
Protocol: as §1
as §2, with “avidin-plates. The list of overlapping peptides was as follows:” for “avidin-plates.”
as §3

Binder	OD450
B1	0.07 OD
B2	0.09 OD
B3	0.08 OD
B4	0.05 OD

Target: T12, biotin-peptide SSMEDYVNFN (human)
T12 peptide: Biotin-SSMEDYVNFN
Assay: ELISA biotin-peptide; scFv 10 ug/mL; repI
Protocol: as §1
as §2, with “avidin-plates. The list of overlapping peptides was as follows:” for “avidin-plates.”
as §3

Binder	OD450
B1	2.45 OD
B2	0.15 OD
B3	0.12 OD
B4	0.1 OD

Target: T13, biotin-peptide FNFTDFYCEK (human)
T13 peptide: Biotin-FNFTDFYCEK
Assay: ELISA biotin-peptide; scFv 10 ug/mL; repI
Protocol: as §1
as §2, with “avidin-plates. The list of overlapping peptides was as follows:” for “avidin-plates.”
as §3

Binder	OD450
B1	0.05 OD
B2	0.09 OD
B3	1.45 OD
B4	0.06 OD

Target: T14, biotin-peptide MTPTDFTSPI (human, also: prints MTPTDFTSP, without I10)
T14 peptide: Biotin-MTPTDFTSPI
Assay: ELISA biotin-peptide; scFv 10 ug/mL; repI
Protocol: as §1
as §2, with “avidin-plates. The list of overlapping peptides was as follows:” for “avidin-plates.”
as §3

Binder	OD450
B1	0.09 OD
B2	0.1 OD
B3	0.08 OD
B4	0.08 OD

Target: T15, biotin-peptide MADDYGSEST (human)
T15 peptide: Biotin-MADDYGSEST
Assay: ELISA biotin-peptide; scFv 10 ug/mL; repI
Protocol: as §1
as §2, with “avidin-plates. The list of overlapping peptides was as follows:” for “avidin-plates.”
as §3

Binder	OD450
B1	0.09 OD
B2	0.09 OD
B3	0.08 OD
B4	0.08 OD

Target: T16, biotin-peptide TDFYCEKNNV (human)
T16 peptide: Biotin-TDFYCEKNNV
Assay: ELISA biotin-peptide; scFv 10 ug/mL; repI
Protocol: as §1
as §2, with “avidin-plates. The list of overlapping peptides was as follows:” for “avidin-plates.”
as §3

Binder	OD450
B1	0.08 OD
B2	0.08 OD
B3	0.06 OD
B4	0.08 OD

Target: T17, biotin-peptide YVNFNFTDFY (human)
T17 peptide: Biotin-YVNFNFTDFY
Assay: ELISA biotin-peptide; scFv 10 ug/mL; repI
Protocol: as §1
as §2, with “avidin-plates. The list of overlapping peptides was as follows:” for “avidin-plates.”
as §3

Binder	OD450
B1	0.17 OD
B2	0.1 OD
B3	1.93 OD
B4	0.1 OD

Target: T18, naked peptide MTPTDFTSPI (human)
T18 peptide: MTPTDFTSPI
Assay: ELISA naked peptide; scFv 1 ug/mL; repII
Protocol: as §1, §2

Binder	OD450
B1	0.04 OD
B2	0.04 OD
B3	0.03 OD
B4	0.04 OD

Target: T19, naked peptide DYGSESTSSM (human)
T19 peptide: DYGSESTSSM
Assay: ELISA naked peptide; scFv 1 ug/mL; repII
Protocol: as §1, §2

Binder	OD450
B1	0.02 OD
B2	0.03 OD
B3	0.02 OD
B4	0.02 OD

Target: T20, naked peptide KNNVRQFAS (human)
T20 peptide: KNNVRQFAS
Assay: ELISA naked peptide; scFv 1 ug/mL; repII
Protocol: as §1, §2

Binder	OD450
B1	0.03 OD
B2	0.04 OD
B3	0.04 OD
B4	0.02 OD

Target: T21, naked peptide MADDYGSEST (human)
T21 peptide: MADDYGSEST
Assay: ELISA naked peptide; scFv 1 ug/mL; repII
Protocol: as §1, §2

Binder	OD450
B1	0.03 OD
B2	0.04 OD
B3	0.02 OD
B4	0.02 OD

Target: T1, naked peptide YCEKNNVRQF
Assay: ELISA naked peptide; scFv 1 ug/mL; repII
Protocol: as §1, §2

Binder	OD450
B1	0.03 OD
B2	0.03 OD
B3	0.07 OD
B4	0.04 OD

Target: T22, naked peptide TDFYCEKNNV (human)
T22 peptide: TDFYCEKNNV
Assay: ELISA naked peptide; scFv 1 ug/mL; repII
Protocol: as §1, §2

Binder	OD450
B1	0.03 OD
B2	0.04 OD
B3	0.03 OD
B4	0.03 OD

Target: T23, naked peptide TSPIPNMADD (human)
T23 peptide: TSPIPNMADD
Assay: ELISA naked peptide; scFv 1 ug/mL; repII
Protocol: as §1, §2

Binder	OD450
B1	0.02 OD
B2	0.04 OD
B3	0.02 OD
B4	0.05 OD

Target: T24, naked peptide IPNMADDYGS (human)
T24 peptide: IPNMADDYGS
Assay: ELISA naked peptide; scFv 1 ug/mL; repII
Protocol: as §1, §2

Binder	OD450
B1	0.02 OD
B2	0.04 OD
B3	0.02 OD
B4	0.01 OD

Target: T25, naked peptide MEDYVNFNFT (human)
T25 peptide: MEDYVNFNFT
Assay: ELISA naked peptide; scFv 1 ug/mL; repII
Protocol: as §1, §2

Binder	OD450
B1	0.86 OD
B2	0.06 OD
B3	0.04 OD
B4	0.06 OD

Target: T26, naked peptide SSMEDYVNFN (human)
T26 peptide: SSMEDYVNFN
Assay: ELISA naked peptide; scFv 1 ug/mL; repII
Protocol: as §1, §2

Binder	OD450
B1	0.99 OD
B2	0.08 OD
B3	0.09 OD
B4	0.09 OD

Target: T27, naked peptide TDFTSPIPNM (human)
T27 peptide: TDFTSPIPNM
Assay: ELISA naked peptide; scFv 1 ug/mL; repII
Protocol: as §1, §2

Binder	OD450
B1	0.04 OD
B2	0.08 OD
B3	0.05 OD
B4	0.06 OD
